Source: the RNAGym collection of RNA variant scans (doi:10.7554/elife.90254)

B1: OR4K15 (parent)
chain: GUUAACGGUCAUAGGCCAUGGAAACUAGGAGCACCAUUUCGCUGCCAGUGAAGAAAUGAACAAAGAAAAUCUGGGCCAGGCAGGCAUCAAAAGAAAUAGUCUUGCGCUCAACCAGAAAGUCUGUAAUCAUUUUAAGGGUA

Variants of: B1
Test: self-cleavage, relative activity (ratio to wild type); higher = more cleavage; in vitro, sequencing; the parent is a self-cleaving ribozyme

Point of comparison: GUUAACGGUCAUAGGCCAUGGAAACUAGGAGCACCAUUUCGCUGCCAAUGAAGAAAUGAACAAAGAAAAUCUGGGCCAGGCAGGCAUCAAAAGAAAUAGUCUUGCGCACAACCAGAAAGUCUGUAAUCAUUUUAAGGGUA, self-cleavage 0.01. Against it:
- GUUAACGGUCAUAGGCCAUGGAAACUAGGAGCACCAUUUCGCUGCCAAUGAAGAAAUGAACAAAGAAAAUCUGGGCCAGGCAGGCAUCAAAAGAAAUAGUCUUGCGCUCAACCAGAAAGCCUGUAAUCAUUUUAAGGGUA — higher, 1.38
- GUUAACGGUCAUAGGCCAUGGAAACUAGGAGCACCAUUUCGCUGCCAAUGAAGAAAUGAACAAAGAAAAUCUGGGCCAGGCAGGCAUCAAAAGAAAUAGUCUUGCGCUCAACCAGAAAGUCUGUAGUCAUUUUAAGGGUA — higher, 1.15
- GUUAACGGUCAUAGGCCAUGGAAACUAGGAGCACCAUUUCGCUGCCAAUGAAGAAAUGAACAAAGAAAAUCUGGGCCAGGCAGGCAUCAAAAGAAAUAGUCUUGCGCUCAACCAGAAAGUCUGUAUUCAUUUUAAGGGUA — higher, 1.9
- GUUAACGGUCAUAGGCCAUGGAAACUAGGAGCACCAUUUCGCUGCCAAUGAAGAAAUGAACAAAGAAAAUCUGGGCCAGGCAGGCAUCAAAUGAAAUAGUCUUGCGCUCAACCAGAAAGUCUGUAAUCAUUUUAAGGGUA — higher, 1.62
- GUUAACGGUCAUAGGCCAUGGAAACUAGGAGCACCAUUUCGCUGCCAAUGAAGAAAUGAACAAAGAAAAUCUGGGCCAGGCAGGCAUCAAAGGAAAUAGUCUUGCGCUCAACCAGAAAGUCUGUAAUCAUUUUAAGGGUA — higher, 2.02
- GUUAACGGUCAUAGGCCAUGGAAACUAGGAGCACCAUUUCGCUGCCAAUGAAGAAAUGAACAAAGAAAAUCUGGGCCAGGCAGGCAUCAAAAGAAAUAGUCAUGCGCUCAACCAGAAAGUCUGUAAUCAUUUUAAGGGUA — higher, 1.1
- GUUAACGGUCAUAGGCCAUGGAAACUAGGAGCACCAUUUCGCUGCCAAUGAAGAAAUGAACAAAGAAAAUCUAGGCCAGGCAGGCAUCAAAAGAAAUAGUCUUGCGCUCAACCAGAAAGUCUGUAAUCAUUUUAAGGGUA — higher, 0.22
- GUUAACGGUCAUAGGCCAUGGAAACUAGGAGCACCAUUUCGCUGCCAACGAAGAAAUGAACAAAGAAAAUCUGGGCCAGGCAGGCAUCAAAAGAAAUAGUCUUGCGCUCAACCAGAAAGUCUGUAAUCAUUUUAAGGGUA — higher, 1.73
- GUUAACGGUCAUAGGCCAUGGAAACUAGGAGCACCAUUUCGCUGCCAAUGAAGAAAUGAACAAAGAAAAUCUGGGCCAGGCAGGCAUCAAAAGAAAUAGUCUUGCGCUCGACCAGAAAGUCUGUAAUCAUUUUAAGGGUA — higher, 0.12
- GUUAACGGUCAUAGGCCAUGGAAACUAGGAGCACCAUUUCGCUGCCAAUGAAGAAAUGAACAAUGAAAAUCUGGGCCAGGCAGGCAUCAAAAGAAAUAGUCUUGCGCUCAACCAGAAAGUCUGUAAUCAUUUUAAGGGUA — higher, 1.63
- GUUAACGGUCAUAGGCCAUGGAAACUAGGAGCACCAUUUCGCUGCCACUGAAGAAAUGAACAAAGAAAAUCUGGGCCAGGCAGGCAUCAAAUGAAAUAGUCUUGCGCUCAACCAGAAAGUCUGUAAUCAUUUUAAGGGUA — higher, 1.18
- GUUAACGGUCAUAGGCCAUGGAAACUAGGAGCACCAUUUCGCUGCCAAUGAAGAAAUGAACAAAGAAAAUCUGGGCCAGGCUGGCAUCAAAAGAAAUAGUCUUGCGCUCAACCAGAAAGUCUGUAAUCAUUUUAAGGGUA — higher, 0.12
- GUUAACGGUCAUAGGCCAUGGAAACUAGGAGCACCAUUUCGCUGCCAUUGAAGAAGUGAACAAAGAAAAUCUGGGCCAGGCAGGCAUCAAAAGAAAUAGUCUUGCGCUCAACCAGAAAGUCUGUAAUCAUUUUAAGGGUA — higher, 1.4
- GUUAACGGUCAUAGGCCAUGGAAACUAGGAGCACCAUUUCGCUGCCAAUGAAGAAAUGAACAAAGAAAAUCUGGGCCAGGCAGGCAUCAAAAGAAAUAGUCUUGCGCUCAACCAGAAAGUCUGAAAUCAUUUUAAGGGUA — higher, 0.41
- GUUAACGGUCAUAGGCCAUGGAAACUAGGAGCACCAUUUCGCUGCCAAUGAAGAAAUGAACAAAGAAAAUCUGGGCCAGGCAGGCAUCAAAAGAAAUAGUCUUGCGCUCAACCAGAAAGUCUGUAAUCACUUUAAGGGUA — higher, 0.82
- GUUAACGGUCAUAGGCCAUGGAAACUAGGAGCACCAUUUCGCUGCCAAUGAAGAAAUGAACAAAGAAAAUCUGGGCCAGGCAGGCAUCAAAAGAAAUAGUCUUGCGCUCAACCAGAAAGUCUGUAAUCAUUUCAAGGGUA — higher, 2.78
- GUUAACGGUCAUAGGCCAUGGAAACUAGGAGCACCAUUUCGCUGCCAAUGAAGAAAUGUACAAAGAAAAUCUGGGCCAGGCAGGCAUCAAAAGAAAUAGUCUUGCGCUCAACCAGAAAGUCUGUAAUCAUUUUAAGGGUA — higher, 0.86
- GUUAACGGUCAUAGGCCAUGGAAACUAGGAGCACCAUUUCGCUGCCACUGAAGAAAUGAACAAAGAAAAUCUGGGCCAGGCAGGCAUCAAAAGAAAUAGUCUUGCGCUCAACCAGAAAGUCUGUAAUCAUUUUAAGGGUA — higher, 1.46
- GUUAACGGUCAUAGGCCAUGGAAACUAGGAGCACCAUUUCGCUGCCAUUGAAGAAAUGAACAAAGAAAAUCUGGGCCAGGCAGGCAUCAAAAGAAAUAGUCUUGCGCUCAACCAGAAAGUCUGUAAUCAUUUUAAGGGUA — higher, 1.61
- GUUAACGGUCAUAGGCCAUGGAAACUAGGAGCACCAUUUCGCUGCCACUGAAGAAAUGAACAAAGAGAAUCUGGGCCAGGCAGGCAUCAAAAGAAAUAGUCUUGCGCUCAACCAGAAAGUCUGUAAUCAUUUUAAGGGUA — higher, 1.37
